In test [1] the target is T1, Methanocaldococcus jannaschii RecJ2 (MJ0831) (Methanocaldococcus jannaschii (strain …, UniProt Q58241)).
T1 chain: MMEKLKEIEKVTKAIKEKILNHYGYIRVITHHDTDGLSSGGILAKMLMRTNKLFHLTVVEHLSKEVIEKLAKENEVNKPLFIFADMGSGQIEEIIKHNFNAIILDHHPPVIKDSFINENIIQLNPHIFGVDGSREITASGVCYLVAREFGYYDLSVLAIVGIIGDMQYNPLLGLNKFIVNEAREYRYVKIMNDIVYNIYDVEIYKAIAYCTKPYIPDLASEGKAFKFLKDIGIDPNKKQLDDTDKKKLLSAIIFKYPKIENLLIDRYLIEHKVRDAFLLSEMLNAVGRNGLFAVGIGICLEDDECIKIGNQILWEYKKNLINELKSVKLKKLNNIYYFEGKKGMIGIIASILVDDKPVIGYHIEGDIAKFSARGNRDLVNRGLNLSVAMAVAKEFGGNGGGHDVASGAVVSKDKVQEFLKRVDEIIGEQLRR
The test is described as follows: Ni-NTA pulldown (co-purification).

The target of test [2] is T1, Methanocaldococcus jannaschii RecJ2 …. The test is described as follows: gel filtration (Superdex 200); MST also negative. (Size exclusion chromatography separates by hydrodynamic size, large species first.)

We go through 2 molecules from PMC5615345 (2017).

B1: Methanocaldococcus jannaschii GINS (MJ0248), 6×His tag and sumo domain removed (protein)
chain: MRVFIIIIYFRCFSKDHKPYFVITMYESLKNYFFEEIKNDKLLKLPDDFYDDIREYIKNIKDDIELERVKYYFKELRKLRIYKALYLDNERENLLPEELNIIHAIENIVVELKIEETPEFKKPTEIDTPKPIYTINDIDVVKVDKNFPPFTDGTFIYDLNKNDVLSLDRKISHILEKHRIISRIGESYENPEES
For B1, the binding result in test [1] is reported as “no binding”.

B2: Methanocaldococcus jannaschii GINS (MJ0248), tag state not stated (protein)
chain: B1 chain
Take B2: the binding result in test [2] is on record as “no binding”.
